Measured values as given in publication PMC4423619 (Journal of glycomics & lipidomics, 2015).

Biological target: T1, rat testis FSH receptor (rat (endogenous in rat testis), UniProt P20395 18-692)
T1 sequence (looked up): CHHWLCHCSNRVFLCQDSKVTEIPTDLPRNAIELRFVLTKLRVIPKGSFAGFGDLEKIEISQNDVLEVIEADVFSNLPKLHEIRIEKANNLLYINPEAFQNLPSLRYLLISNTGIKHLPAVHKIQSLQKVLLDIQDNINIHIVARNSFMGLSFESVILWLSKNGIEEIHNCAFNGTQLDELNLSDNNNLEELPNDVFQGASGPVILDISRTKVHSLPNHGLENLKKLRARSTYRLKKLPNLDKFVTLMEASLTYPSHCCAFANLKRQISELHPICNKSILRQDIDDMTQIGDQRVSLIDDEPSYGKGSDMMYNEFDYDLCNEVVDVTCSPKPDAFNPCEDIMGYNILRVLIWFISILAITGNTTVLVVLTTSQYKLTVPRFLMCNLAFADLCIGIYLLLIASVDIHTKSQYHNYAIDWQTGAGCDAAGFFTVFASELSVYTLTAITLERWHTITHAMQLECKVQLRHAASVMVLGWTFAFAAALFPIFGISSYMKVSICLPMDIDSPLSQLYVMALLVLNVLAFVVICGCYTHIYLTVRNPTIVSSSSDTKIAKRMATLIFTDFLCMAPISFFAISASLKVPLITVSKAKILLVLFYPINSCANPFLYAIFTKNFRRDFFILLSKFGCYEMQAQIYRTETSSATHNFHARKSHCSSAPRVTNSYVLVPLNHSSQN
Experiment: radioligand binding

- ID50: 269 ng
B1: human pituitary hFSH^24 glycoform (fully-glycosylated hFSH^24) (complex)
chain 1: not shown
chain 2: NSCELTNITIAIEKEECRFCISINTTWCAGYCYTRDLVYKDPARPKIQKTCTFKELVYETVRVPGCAHHADSLYTYPVATQCHCGKCDSDSTDCTVRGLGPSYCSFGEMKE
modifications: N-glycans at Asn52 and Asn78 | N-glycans at Asn7 and Asn24
